From publication PMC4140821 (2014) come the findings set out here.

Among the targets are CSN5^ΔC,R106T (human, UniProt Q92905 1-257, R106T); CSN6^ΔC,H44A (human, UniProt Q7L5N1 31-211, H44A); CSN6^ΔC,V115E (human, UniProt Q7L5N1 31-211, V115E).
Assay in all cases: ITC
A general note: Isothermal titration calorimetry measures the heat released or taken up as one component is titrated into another.

CSN5^ΔC,R106T, sequence (Q92905 1-257 R106T): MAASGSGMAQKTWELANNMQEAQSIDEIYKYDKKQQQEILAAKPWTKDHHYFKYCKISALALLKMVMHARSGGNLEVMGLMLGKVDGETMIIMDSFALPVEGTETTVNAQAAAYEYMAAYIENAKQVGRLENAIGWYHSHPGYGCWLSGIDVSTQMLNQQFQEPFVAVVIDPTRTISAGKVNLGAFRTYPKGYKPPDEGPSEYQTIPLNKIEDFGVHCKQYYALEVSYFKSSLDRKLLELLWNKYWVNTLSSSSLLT

B1: CSN6^ΔC (human CSN6 31–211 fragment) (domain or fragment)
chain: MACGVTGSVSVALHPLVILNISDHWIRMRSQEGRPVQVIGALIGKQEGRNIEVMNSFELLSHTVEEKIIIDKEYYYTKEEQFKQVFKELEFLGWYTTGGPPDPSDIHVHKQVCEIIESPLFLKLNPMTKHTDLPVSVFESVIDIINGEATMLFAELTYTLATEEAERIGVDHVARMTATGS
As a reminder, the Kd is the free concentration of one partner at which half of the binding sites on the other are occupied at equilibrium, for simple one-to-one binding. A low value points to higher affinity. Turning to B1, binding in the experiment with CSN5^ΔC,R106T was put at a Kd of 5.8 µM.

B2: CSN5^ΔC,WT (human CSN5 1–257 fragment) (domain or fragment)
chain: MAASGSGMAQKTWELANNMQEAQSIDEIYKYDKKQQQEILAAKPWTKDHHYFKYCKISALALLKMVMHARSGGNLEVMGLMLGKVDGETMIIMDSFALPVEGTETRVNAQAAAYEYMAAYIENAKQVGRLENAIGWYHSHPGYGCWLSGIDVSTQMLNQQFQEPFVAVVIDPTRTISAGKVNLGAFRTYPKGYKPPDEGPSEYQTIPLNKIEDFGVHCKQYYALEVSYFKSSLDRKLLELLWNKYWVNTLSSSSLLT
On to B2, for which the equilibrium dissociation constant (Kd) in the experiment with CSN6^ΔC,H44A turned out to be 9.2 µM; with CSN6^ΔC,V115E, 29 µM.
